Assay results from US20140289906A1, “Compositions Having Dicamba Decarboxylase Activity and Methods of Use” (priority 2013, published 2014).

Assay: 14C assay: 14CO2 capture from [14C]-carboxyl-labeled dicamba with IPTG-induced recombinant E. coli cells
Settings: for Dicamba Decarboxylase Activity: IPTG-induced recombinant E. coli cells, 14CO2 from [14C]-carboxyl-labeled dicamba; for decarboxylation activity of dicamba: among the 108 sequences tested, recombinant E. coli cell assay; for Enzymatic Detection level: dicamba decarboxylation activity

Molecule | Dicamba Decarboxylase Activity | decarboxylation activity of dicamba | Enzymatic Detection level
79 (protein, Pyrenophora teres) MATTTTPSTLIATLESHLTPTLAFTSPTTSPTQPALHLIPPTTLTKLRNLGPGRVKDMHMLGHSRQIISHIPVAAPPQICSRFNDAIHAATMTNTAKFSVLAVLPTDGMEAAKELARCVSKYRFVGGVIGLNRGLRINGEGWEELWGLAERLRIPIMFREMWPLAFEIVDYQHHLPYSALGPILTQLHTSHTSSPLPLVRLYLSSVFDHYPSLRLVLAHPGSLPSLVPRIESLINSIPATDKPKRSFLDVWQHNIYLTTADAQDMSSLRALLEQIPVDRVLYASNYPFEERGNELMNELRESEFLTNIEWERVAWVNAETLFNLKEAGTKEARQLTTIPSSRS | High | showed decarboxylation activity of dicamba | High
58 (protein, Mycobacterium colombiense) MARVIALEEHYATTEFLRGPGTWLASRPGIVEPAGDLGDGRIAAMDQAGVDLAVLSLAAPGVEQLDPDDAVRLARDCNDQLAAAVRRYPDRLAGFATVPTSAPDRAADELERAVRGLGFPGAVINGHSRGRYLDDPFFEPVLARAAELQAPIYLHPTIPPAGVIESSYAGFAEPVTFALATVGWGWHINTATHALRMILGGVFDRHPSLQMIIGHMGEATSFMLPRFDATLKPELTGLNHPVSSYLRENFHYTFANFNDHATYANLVAQVGIERVAFSADYPFGSMVDARAFLDGLPLSDDERAAISHRNAEKLLGL | High | showed decarboxylation activity of dicamba | High
50 (protein, listed as Streptomyces sp.) MARIVTLEEHWTDPAVTAAGMPNLLDHVPGYAAAFDPDTGMPYPRHPELLEDLGAARIADMDRHGITTQVLSLVNTFLPADVAPRLTAAANDAMAAAVEAFPGRFAAFATLPTAVPGAAADELRRCVGELGFVGTMIMGRTDGEFLDQPRFDPILRAASDLSVPVYLHPAPPPVAVSEASYAGGLSPAVSAAFRLAAWGWHQETAVHLLHLVLAGVLDRYPGLQFVLGHWGEFIPFYLDRLDESMPRRMTGLDRTFREYFRDNVFITPSGMFSQAQLRYCADTVGTDRIIHSVDFPMLGNEGAVSFLTDSHLSREDQEKIAHGNADALLGLG | High | showed decarboxylation activity of dicamba | High
53 (protein, listed as Granulicella tundricola) MARTITLEEHFVTDSFLRATGAYDKPAPPWLAQLQPKLLDLGDGRIAAMDEAGIDLQVLSLAALGFDALDAATATPLVHDINDELAAAVRANPTRLAAFASLALKDPQSAARELERAIQKLGFRGVLLDGTTDGLFLDDPRFTPVFEAAVALNVPIYLHPAPPPESVFDTYFTGLPEGVGQMLSIAGWGWHAETALHTLRLITNGVFDRYPTLQLIIGHMGEMLPMALARTSKALSHAARLRQPVAAYFQSNIHLTTSGYFTQPPLRCALDVVGIDRLMFSIDYPFSANTLGRDYLTELEQTLTPEDLAKLIHRNAESLLNLS | High | showed decarboxylation activity of dicamba | High
81 (protein, listed as Verticillium dahliae) MAASTKPKVVDIHTHMYPPSYIDILTSRTAIPVVRTFPQAADPRLILLDAEQQALDAALQDPTAKPPGRPLTSHYASLDQKIHFMDTHSIDISVVSLANPWLDFIEPKEAAATARSVNDEFEAMCASQPGRLFFFAALPLTAPLPALLEAVRHVAELEHCRGVILGTSGLGSGLDDPELVPVLEAVAAAALTVFLHPHYGLPNDVWGPRASAEYGHVLPLALGFPMETTIAVARMYLAGVFDRVPALRMLLAHSGGTLPFLAGRIESCILHDGQLVAEGKVGAARRTIWDVLREQVYLDAVIYSEIGLKAAIAASGGADRLMFGTDHPFFPPLGTDEQAKKESRINAGGSRPMITGNAMINGHGGLCNHITQSDYQDVVL | High | showed decarboxylation activity of dicamba | High
2 (protein, listed as Serratia sp.) MAKIICLEEHTLDKALVMASMPAALEQAPFLSDWGKTVTDGNLPDRSRPQIEKNDLINIKGADIGRGRLDDMDVAGITMQVLSVGGFPHLISAAEGVDLNRAANDRLADAVNAHPDRFAAFATLPWAQPDSAEKELERAVKELGFKGALLNGRPSTHFLDHPDYDGLLARFNALGVPLYLHPGLPVRSVQQAYYGGFSDEVTARLSMFGWGWHHEAGIHLLRLILSGAFDKYPNLQVISGHWGEMLPFWLQRLDDSLPQAATGLRRTIAQTFKEQVYVTPSGMLTLPHFQFIYALLGAERIIFSVDYPYQTLDGVKAFIQSLPVPEEAKEAIAFRNAERLLGLTS | High | showed decarboxylation activity of dicamba | High
55 (protein, listed as Serratia sp.) MAKIICLEEHTLDKALVMASMPAALEQAPFLSDWGKTVTDGNLPDRSRPQIEKNDLINIKGADIGRGRLDDMDVAGITMQVLSVGGFPHLISAAEGVDLNRAANDRLADAVNAHPDRFAAFATLPWAQPDSAEKELERAVKELGFKGALLNGRPSTHFLDHPDYDGLLARFNALGVPLYLHPGLPVRSVQQAYYGGFSDEVTARLSMFGWGWHHEAGIHLLRLILSGAFDKYPNLQVISGHWGEMLPFWLQRLDDSLPQAATGLRRTIAQTFKEQVYVTPSGMLTLPHFQFIYALLGAERIIFSVDYPYQTLDGVKAFIQSLPVPEEAKEAIAFRNAERLLGLTS | High | showed decarboxylation activity of dicamba | High
87 (protein, listed as Novosphingobium sp.) MASDIATAADLQTGGRQGYLRIATEEAFATRDQIDVYLRMVRDGTADRGMTSLWGFYAQSPSARATQIIERLLDLGEQRLADMDAAGIDKAVLALTSPGVQPLLDMEEARRIAGNANDRLAERCAAHPDRFIGMTAVAPQDPQWSAREILRGATQLGFKGVQINSHTQGRYLDEPFFDPIFRALGDVGQPLYIHPGTPPDSMIGPLLDAGLDGAIYGFGVETGMHLLRLITAGIFDRYPDLQIMVGHMGEALPYWLYRLDYMHQAGIRSQRYERMRPLKRTIAGYFRSNVLVTCSGMAWEPAIQFARQVMGEDRVMYAMDYPYQYEADEVRALDVMDLSPESKRKFFQTNAERWFDL | High | showed decarboxylation activity of dicamba | High
56 (protein, Enterobacter aerogenes) MAKIICLEEHYLDSELGRACMPVALEQAPFLGDWGKTVADGHNPDRSRPQIEKNALINAKGADLGSRRLRDMDEAGITLQILSVGGFPQLAPEDEAVTLNTAANDRLAEAVRNHPDRFAAFATLPWAQPKDAENELVRAVEKLGFKGALLNGRPSSCFLDHPDYDSLLSRFNKLNVPLYLHPGLPLKSVQQAYFTGFSAEVNARLSMFGWGWHHEAGIHLLRLMLSGAFDKYPNMQVISGHWGEMLPFWLQRLDDSLPLAATGLSRTLTRTFQEHVYVTPSGMLTLPHFKFIYELMGAERILFSVDYPYQTLDGVKTFIDSLPVNKAEKEAIAFRNAERLLGITA | High | showed decarboxylation activity of dicamba | High
51 (protein, listed as Mycobacterium gilvum) MARVIAIEEHYAHPGLQPAEALANLRKHPQLARIQDKLEDLGAGRLADMDAAGIDMQVLSHTVPGAEALPAAQAVDVVRQTNDDLAEVIAAHPDRFAGFAALPMRDPQAAATELQRAVGTLGFCGAMINGLIEGRFLDHPDFTPLLSTAADLGVPLYLHPSFPPPQVAQIYFGGLPPVLADLLATAGWGWHAETALHVLRLISTGVFDRLPELRVIVGHMGEMIPFALARIDTVLSPMTELRQPVAQYFQTNVWFTTSGYTTFPPLQCALSTVGIDRLIFSVDYPYTDNASARALLDTAPISPVDREKLAHATVEALLRV | High | showed decarboxylation activity of dicamba | High
57 (protein, Collimonas fungivorans) MAKLICVEEHVLDPAVGAATQSLVRAEAPYLPDWGSRVLDGRHVADRSRPHVIAPSESARKALEMGEPRLADMDAASIDMQVLSYGGFPQLLPAAQAIDLNRAANDKLALAAQAHPARFAGFATLPWQAPEAAARELERAVKQLGLKGALINGRPGDTFLDDARYAPILAAFDELKVPLYVHPGLPLPAVQAPYYGGFERELSARLAMFAWGWHNEAGIQVVRMLLAGVFDRHPRLQLISGHWGEMVPFFLQRLEDSIPQEASGLQRPIVQTYREHVYISPSGMFTLPHFQFIHALMGAQRILYSIDYPYQSLDGARAFIERLPISDTDKALIAHRNAERLLHL | High | showed decarboxylation activity of dicamba | High
52 (protein, listed as Streptomyces sp.) MAKIIALEEHFSDPAVAKAGAARAQALSPGFAASYSPASGLPYSPSPEVLENLAEKRLADMDAGGITMQVLSGLSAQTVPADVAPALVAGSNDKAAAAVRAHPDRFAAFAALPTAAPEAAVAELDRSVNELGFVGTLIMGRTEGEFLDAPRFEPILARAAALKVPVFLHPGVPPREITDSNYAAGLPTGIGTRLQTAAWGWHQETAVHFLHLVHSGVLDRYPDLQFILGHWGETIPFYLDRVDEALPQRATGLDRSFHEYFRENVYLAPSGMWSQAQLRFCLETFPLERIVFAVDYPFIGNEGAVPFLEKAELPEADKRKIAHENAERLLGL | High | showed decarboxylation activity of dicamba | High
54 (protein, listed as Streptomyces sp.) MAKIIALEEHFSDPAVAKAGAARAQALSPGFAASYSPASGLPYSPSPEVLENLAEKRLADMDAGGITMQVLSGLGAQTVPADVAPALVAGSNDKAAAAVRAHPDRFAAFAALPTAAPEAAVAELDRSINELGFVGTLIMGRTEGEFLDAPRFEPILARAAALKVPVFLHPGVPPREITDSNYAAGLPTGIGTRLQTAAWGWHQETAVHFLHLVHSGVLDRYPGLQFILGHWGEMIPFYLDRVDEALPQRATGLDRSFHEYFRENVYLAPSGMWSQAQLRFCLETVPLERIVFAVDYPFIGNEGAVPFLEKAELPEADKRKIAHENAERLLGL | High | showed decarboxylation activity of dicamba | High
